In publication PMC8927968, “Lysine Methylation Modulates the Interaction of Archaeal Chromatin Protein Cren7 With DNA”:
Positions count from the first letter of the chain named.

Tests used:
[1] = tested on: Sis7dWT (native, methylated) (Sulfolobus islandicus E234); test: BLI; conditions: BLI: 20 mM Tris-HCl pH 6.8, 100 mM KCl, 1 mM EDTA, 0.05% Tween-20, 30°C; pull-down: 10 mM HEPES pH 7.6, 100 mM KCl, 2.5 mM MgCl2, 0.1 mg/mL BSA, room …
[2] = tested on: Sis7dΔaKMT (native, unmodified) (Sulfolobus islandicus ΔaKMT); test: BLI; conditions: BLI: 20 mM Tris-HCl pH 6.8, 100 mM KCl, 1 mM EDTA, 0.05% Tween-20, 30°C; pull-down: 10 mM HEPES pH 7.6, 100 mM KCl, 2.5 mM MgCl2, 0.1 mg/mL BSA, room …
rSis7d = test: BLI; conditions: BLI: 20 mM Tris-HCl pH 6.8, 100 mM KCl, 1 mM EDTA, 0.05% Tween-20, 30°C; pull-down: 10 mM HEPES pH 7.6, 100 mM KCl, 2.5 mM MgCl2, 0.1 mg/mL BSA, room …
Cren7 K24Q K24Q = target: T1, Cren7 K24Q K24Q (UniProt C3NHU3); test: DNA-cellulose pull-down (bridging); conditions: BLI: 20 mM Tris-HCl pH 6.8, 100 mM KCl, 1 mM EDTA, 0.05% Tween-20, 30°C; pull-down: 10 mM HEPES pH 7.6, 100 mM KCl, 2.5 mM MgCl2, 0.1 mg/mL BSA, room …
T1 sequence: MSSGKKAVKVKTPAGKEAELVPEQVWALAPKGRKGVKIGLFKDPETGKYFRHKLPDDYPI

Cren7 K31Q K31Q = target: T2, Cren7 K31Q K31Q (UniProt C3NHU3); test: DNA-cellulose pull-down (bridging); conditions: BLI: 20 mM Tris-HCl pH 6.8, 100 mM KCl, 1 mM EDTA, 0.05% Tween-20, 30°C; pull-down: 10 mM HEPES pH 7.6, 100 mM KCl, 2.5 mM MgCl2, 0.1 mg/mL BSA, room …
T2 sequence: T1 sequence with Q24K, K31Q

Cren7 K42Q K42Q = target: T3, Cren7 K42Q K42Q (UniProt C3NHU3); test: DNA-cellulose pull-down (bridging); conditions: BLI: 20 mM Tris-HCl pH 6.8, 100 mM KCl, 1 mM EDTA, 0.05% Tween-20, 30°C; pull-down: 10 mM HEPES pH 7.6, 100 mM KCl, 2.5 mM MgCl2, 0.1 mg/mL BSA, room …
T3 sequence: T1 sequence with Q24K, K42Q

Cren7 K48Q K48Q = target: T4, Cren7 K48Q K48Q (UniProt C3NHU3); test: DNA-cellulose pull-down (bridging); conditions: BLI: 20 mM Tris-HCl pH 6.8, 100 mM KCl, 1 mM EDTA, 0.05% Tween-20, 30°C; pull-down: 10 mM HEPES pH 7.6, 100 mM KCl, 2.5 mM MgCl2, 0.1 mg/mL BSA, room …
T4 sequence: T1 sequence with Q24K, K48Q

[3] = target: T5, Cren7WT (native, methylated) (Sulfolobus islandicus E234) (UniProt C3NHU3); test: DNA-cellulose pull-down (bridging); conditions: BLI: 20 mM Tris-HCl pH 6.8, 100 mM KCl, 1 mM EDTA, 0.05% Tween-20, 30°C; pull-down: 10 mM HEPES pH 7.6, 100 mM KCl, 2.5 mM MgCl2, 0.1 mg/mL BSA, room …
T5 sequence: T1 sequence with Q24K

rCren7 [4] = target: T6, rCren7 (UniProt C3NHU3 1-60); test: DNA-cellulose pull-down (bridging); conditions: dsDNA-cellulose, 2.5 mM MgCl2, BLI: 20 mM Tris-HCl pH 6.8, 100 mM KCl, 1 mM EDTA, 0.05% Tween-20, 30°C, pull-down: 10 mM HEPES pH 7.6, 100 mM KCl, 2.5 mM MgCl2, 0.1 mg/mL BSA, room …
T6 sequence: T1 sequence with Q24K

Cren7 K24Q = target: T7, Cren7 K24Q (UniProt C3NHU3 1-60, K24Q); test: BLI; BLI: 20 mM Tris-HCl pH 6.8, 100 mM KCl, 1 mM EDTA, 0.05% Tween-20, 30°C; pull-down: 10 mM HEPES pH 7.6, 100 mM KCl, 2.5 mM MgCl2, 0.1 mg/mL BSA, room temperature; conditions: protein: recombinant; label: 5' biotin on strand 1; blunt
T7 sequence: T1 sequence

rCren7 [5] = target: T6, rCren7; test: as above; conditions: protein: recombinant; label: 5' biotin on strand 1; blunt
Cren7 K48Q = target: T8, Cren7 K48Q (UniProt C3NHU3 1-60, K48Q); test: as above; conditions: protein: recombinant; label: 5' biotin on strand 1; blunt
T8 sequence: T1 sequence with Q24K, K48Q

Cren7 K42Q = target: T9, Cren7 K42Q (UniProt C3NHU3 1-60, K42Q); test: as above; conditions: protein: recombinant; label: 5' biotin on strand 1; blunt
T9 sequence: T1 sequence with Q24K, K42Q

Cren7 K31Q = target: T10, Cren7 K31Q (UniProt C3NHU3 1-60, K31Q); test: as above; conditions: protein: recombinant; label: 5' biotin on strand 1; blunt
T10 sequence: T1 sequence with Q24K, K31Q

Molecule: TAGAGCCCTAGTCTTCCAAACTAGCTACGC (double strand) [D30]
- Kd [1]: 1640 nM
- Kd [2]: 1370 nM
- Kd (rSis7d): 1040 nM

Molecule: pBR322
- binding signal (Cren7 K24Q K24Q): < 10 % of rCren7
- binding signal (Cren7 K31Q K31Q): < 10 % of rCren7
- binding signal (Cren7 K42Q K42Q): < 10 % of rCren7
- binding signal (Cren7 K48Q K48Q): < 10 % of rCren7
- binding signal (% (barely detected)) [3]: < 10
- binding signal (% input pulled down) (rCren7 [4]; 5 uM protein): 18
- binding signal (% input pulled down) (rCren7 [4]; 10 uM protein): 35

B1: D30 (dsDNA)
DNA 1: TAGAGCCCTAGTCTTCCAAACTAGCTACGC
DNA 2: GCGTAGCTAGTTTGGAAGACTAGGGCTCTA
- Kd (Cren7 K24Q): 217 nM
- Kd (rCren7 [5]): 125 nM
- Kd (Cren7 K48Q): 199 nM
- Kd (Cren7 K42Q): 1120 nM
- Kd (Cren7 K31Q): 103 nM
